# ± gives the standard deviation of the averaged measurements.
# B1: library; a variant is named by its letters at N, in order (parent)
# chain: AATGTTGTTGATGCAACCATAAAGTGATATTTAATAATTATTTATAATCAGCAACTTAACCACAAAACAACCATATATTGATATNTCACAAAACAACCATAANTTGATATTTTTGTGAATCGAGTATTTCAGCAAAACTACTGCAGTAAGAA
# Columns and labels:
# [1] = variants of: B1; assay: relative integration efficiency (T-LR orientation) vs wild-type transposon end (log2 (normalized fold change)); transposon end mutated: left end; higher = more efficient transposition; conditions: with VchCAST RNA-guided transposition machinery (E. coli BL21(DE3) host, lacZ target)
# Procedure, shortened: (§1)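 Barcode abundances in input plasmids and in genomic integration junctions were obtained by PCR amplification and Illumina sequencing. These came from E. coli BL21(DE3) co-transformed with a T7-driven effector plasmid and a pUC57 donor carrying 1549 left-end or 1849 right-end transposon variants, then plated with 0.1 mM IPTG at 37°C for 18 h. Relative integration efficiency is the output/input fold change, normalised to reference barcodes and log-transformed.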
# [2] = variants of: B1; assay: relative integration efficiency (T-RL orientation) vs wild-type transposon end (log2 (normalized fold change)); transposon end mutated: left end; higher = more efficient transposition; conditions: with VchCAST RNA-guided transposition machinery (E. coli BL21(DE3) host, lacZ target)
# Procedure, shortened: as §1
Variant,relative integration efficiency (log2) [1],relative integration efficiency (log2) [2]
CG T104A,-0.147 ± 0.15,-0.341 ± 0.23
CG G117T A118C A119C T120G C121A G122T A123C G124T T125G,0.16 ± 0.029,0.0955 ± 0.074
CG A46G,-0.0959 ± 0.59,-0.0807 ± 0.18
CG A46T,-0.195 ± 0.93,-0.0773 ± 0.14
CG A96T C97G C98G A99T,-2 ± 1.1,-2.05 ± 0.9
CG C72G A73T,-1.6 ± 1.4,-1.44 ± 0.73
TA T76A A77G C87T A96C T112G T113C,-0.4 ± 0.34,-0.203 ± 0.3
CG T28G A29C T30G T31G,-2.32 ± 0.87,-1.98 ± 0.8
TA A16C G24T T30A T76A T78A T84A C87A T104G T113A,-0.559 ± 0.18,-0.412 ± 0.26
CG A21C A22C,-1.77 ± 0.64,-1.82 ± 0.43
CG A50T G51C C52G A53T,-0.839 ± 1.2,-0.552 ± 0.39
AG T84G T86G C87A,0.381 ± 0.25,0.0958 ± 0.22
TG T76A T78G C87A,0.336 ± 0.26,0.505 ± 0.035
CG C60A C61A A62C C63A,0.51 ± 0.29,0.406 ± 0.095
CG T43C,-0.00723 ± 0.047,-0.241 ± 0.11
CT T104G,-0.14 ± 0.17,-0.45 ± 0.14
TA A16C G24T T30A T76A T78A T84A C87A A96C T112G T113C,-0.55 ± 0.9,-0.0685 ± 0.46
TA A16C G24T T32G A33C A70C T76A T84A C87A A96C T110A T113A,-0.499 ± 1.2,-0.0812 ± 0.47
CA T104A T110A T113A,-0.182 ± 0.39,-0.656 ± 0.2
CG G51C C52G A53T A54T,-0.796 ± 0.93,-0.34 ± 0.37

Variant,relative integration efficiency (log2) [1],relative integration efficiency (log2) [2]
CG T32G A33C,0.439 ± 0.1,0.352 ± 0.14
CG T25A G26C,-1.33 ± 1.5,-1.73 ± 0.85
CG A118C A119C,0.178 ± 0.4,-0.00591 ± 0.078
CG T25G G26T A27C T28G,-2.73 ± 1.1,-2.55 ± 0.99
GG T30A T31A T32A A33T T84A T86A C87G T110A T111A T112A T113A,-1.77 ± 2.3,-1.15 ± 0.64
TA G24A T30A A70C T76A T84A C87A A96C T110A T113A,0.37 ± 0.55,0.271 ± 0.25
CG T110A,0.258 ± 0.5,-0.016 ± 0.099
CG T110G,-0.561 ± 0.13,-0.516 ± 0.25
CG T12A G13A T30A T31C A77C T86G,-1.07 ± 0.047,-0.538 ± 0.15
CG T76G A77C,-0.497 ± 0.94,-0.785 ± 0.46
CG T38A T42A T45A A47T C49A G51T C52T A54T C55T T56A T57A A59T,-2.39 ± 1.1,-2.37 ± 0.87
CG A90T A91T A92T A93T,-0.429 ± 0.24,-0.557 ± 0.36
CG T25A,-0.158 ± 0.68,-0.346 ± 0.3
CG T25C,0.0625 ± 0.14,-0.137 ± 0.12
CG C89G A90T A91T A92T,-0.0713 ± 0.9,-0.00767 ± 0.14
TA A23G G24T A33T T76A T78G C87A T104G T113A,0.453 ± 0.52,-0.0355 ± 0.21
GG,-0.397 ± 0.89,-0.0172 ± 0.13
CG T30A T31A,0.174 ± 0.14,0.109 ± 0.27
CG T114A G115C T116A G117C,-0.217 ± 0.74,-0.00788 ± 0.19
CG A64T,-0.053 ± 0.081,-0.229 ± 0.11

Variant,relative integration efficiency (log2) [1],relative integration efficiency (log2) [2]
TG A22T G24T T31C A33C A70C T76A T86G,-0.285 ± 0.49,-0.627 ± 0.19
CG A81T,-0.4 ± 0.15,-0.396 ± 0.57
CG C18G,0.0813 ± 0.047,0.259 ± 0.083
TA A16C G24T T32G A33C T76A A77G C87T T104G T113A,-0.746 ± 0.94,-1.52 ± 0.61
TA T76A T78A T84A C87A T104G T113A,0.188 ± 0.023,-0.245 ± 0.21
CG C87A,-0.42 ± 0.76,-0.276 ± 0.053
TA A16C G24T T30A T76A T78A T84A C87A A96C T110A T113A,-0.28 ± 0.67,-0.316 ± 0.43
CG G10C,-1.66 ± 0.034,-0.357 ± 0.19
CG G10T,-1.38 ± 0.3,-0.454 ± 0.26
CG T31G T32G,-0.16 ± 0.58,-0.225 ± 0.34
CG A47C,-0.251 ± 0.89,-0.0577 ± 0.11
CG C121A G122T A123C G124T T125G,0.905 ± 0.042,0.666 ± 0.12
CG C68G,-0.736 ± 0.69,-0.831 ± 0.36
TA A22T G24T T31C A33C T76A A77G C87T A96C T112G T113C,-0.0329 ± 0.84,-0.66 ± 0.42
CA A23G G24T A33T T104A T110A T113A,-0.166 ± 0.3,-0.424 ± 0.22
TA A23G G24T A33T A70C T76A T84A C87A A102T T111C T113C,-0.166 ± 0.29,0.133 ± 0.28
CG T105G G106T A107C T108G,-2.48 ± 1.8,-2 ± 0.7
CG A102T,0.323 ± 0.19,-0.123 ± 0.24

# Source: the supplement of paper PMC10201428
